Target: CPm (minor coat protein) (Tomato chlorosis virus, UniProt A0A088FMK1 1-669)
Assay: EMSA; […], room temperature 30 min; […]; binding buffer, […]
Details: protein: recombinant; tags: His (pET28a); label: 5'-biotin; single strand

UCAACAGGAUCGAGCUUAAGG (ssRNA) [siRGFP-guide (single-stranded GFP RNA probe)]: no binding.

Reference: PMC10086252, “Tomato chlorosis virus CPm protein is a pathogenicity determinant and suppresses host local RNA silencing induced by single-stranded RNA”
